Target: T1, His-SlmA/SBS (E. coli), P0C093
T1 chain: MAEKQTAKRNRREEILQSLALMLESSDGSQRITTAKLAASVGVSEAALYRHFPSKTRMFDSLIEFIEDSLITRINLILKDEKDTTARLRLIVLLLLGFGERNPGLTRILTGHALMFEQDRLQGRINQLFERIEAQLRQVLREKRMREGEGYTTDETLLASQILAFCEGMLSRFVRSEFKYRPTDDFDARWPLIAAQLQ
Assay: BLI
Details: remark: other sources report otherwise

Kd: 82 µM
B1: FtsZ-360, P0A9A6 1-360 (domain or fragment)
chain: MFEPMELTNDAVIKVIGVGGGGGNAVEHMVRERIEGVEFFAVNTDAQALRKTAVGQTIQIGSGITKGLGAGANPEVGRNAADEDRDALRAALEGADMVFIAAGMGGGTGTGAAPVVAEVAKDLGILTVAVVTKPFNFEGKKRMAFAEQGITELSKHVDSLITIPNDKLLKVLGRGISLLDAFGAANDVLKGAVQGIAELITRPGLMNVDFADVRTVMSEMGYAMMGSGVASGEDRAEEAAEMAISSPLLEDIDLSGARGVLVNITAGFDLRLDEFETVGNTIRAFASDNATVVIGTSLDPDMNDELRVTVVATGIGMDKRPEITLVTNKQVQQPVMDRYQQHGMAPLTQEQKPVAKVVND

From article PMC4364296
